Results published in patent US20180273595A1 (REGENTS OF THE UNIVERSITY OF MICHIGAN, published 2018).
Where no end group is shown, it is not given here. The star is where a group is joined. Biotin = O=C1N[C@H]2[C@H](CS[C@H]2CCCCC(=O)*)N1

T1: Halo-tagged ERG mutant Y373A (UniProt P11308 1-479)
T1 construct: mature; also called ERG (Y373A); negative control ERG (Y373A); not shown: Halo-tag at the N-terminus
T1 sequence (looked up): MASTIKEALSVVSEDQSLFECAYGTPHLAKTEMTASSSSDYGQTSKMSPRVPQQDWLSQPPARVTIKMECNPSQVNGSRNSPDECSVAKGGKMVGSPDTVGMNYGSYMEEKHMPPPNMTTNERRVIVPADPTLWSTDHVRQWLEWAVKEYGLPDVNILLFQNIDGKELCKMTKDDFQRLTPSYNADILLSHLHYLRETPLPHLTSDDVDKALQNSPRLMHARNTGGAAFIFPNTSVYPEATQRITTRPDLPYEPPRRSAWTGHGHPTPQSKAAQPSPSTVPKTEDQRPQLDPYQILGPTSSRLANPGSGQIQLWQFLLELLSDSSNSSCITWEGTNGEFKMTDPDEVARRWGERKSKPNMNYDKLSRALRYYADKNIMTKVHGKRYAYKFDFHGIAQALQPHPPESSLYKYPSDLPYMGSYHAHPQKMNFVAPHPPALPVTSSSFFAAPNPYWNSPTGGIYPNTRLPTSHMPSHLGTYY

T2: recombinant His-tagged full-length ERG (UniProt P11308 1-479, biotinylated with NHS-PEG4 biotin for the OctetRED assays)
T2 construct: mature; Baculovirus expression in SF9 cells, Ni-NTA purified; also called wild-type ERG; wtERG; not shown: His tag
T2 sequence (looked up): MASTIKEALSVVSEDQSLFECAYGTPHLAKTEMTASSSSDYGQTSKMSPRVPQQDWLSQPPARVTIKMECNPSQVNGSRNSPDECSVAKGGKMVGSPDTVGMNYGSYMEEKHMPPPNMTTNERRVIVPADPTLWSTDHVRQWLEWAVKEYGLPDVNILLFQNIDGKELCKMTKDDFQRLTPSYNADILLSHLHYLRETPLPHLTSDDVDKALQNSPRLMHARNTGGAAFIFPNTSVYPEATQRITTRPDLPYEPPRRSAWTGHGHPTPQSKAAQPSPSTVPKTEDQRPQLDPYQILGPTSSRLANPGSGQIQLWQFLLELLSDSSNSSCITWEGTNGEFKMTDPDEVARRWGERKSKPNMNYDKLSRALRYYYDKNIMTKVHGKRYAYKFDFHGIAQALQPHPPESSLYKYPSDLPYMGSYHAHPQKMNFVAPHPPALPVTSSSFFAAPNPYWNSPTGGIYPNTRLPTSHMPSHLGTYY


Legend:
[1] = target: T1, Halo-tagged ERG mutant Y373A; experiment: pull-down of Halo-tagged proteins with biotin peptide
[2] = target: T3, Halo-tagged full-length Spi1 (UniProt P17947 1-270); experiment: as above
T3 construct: mature; not shown: Halo-tag at the N-terminus

[3] = target: T2, recombinant His-tagged full-length ERG; experiment: binding assay of capped EIP1 variants (FIG. 13); capped EIP1, L5E
[4] = target: T2, recombinant His-tagged full-length ERG; experiment: Kd table of synthetic peptides on ERG; assay not given
[5] = target: T2, recombinant His-tagged full-length ERG; experiment: binding assay of capped EIP1 variants (FIG. 13); capped EIP1, Y4E

Row | Binder | binding result [1] | binding result [2] | Kd [3] [µM] | Kd [4] [µM] | Kd [5] [µM]
1 | Biotin-LSFGSLP (also called biotin-EIP2) [biotinylated EIP2 peptide (Biotin-LSFGSLP)] | no binding | no binding |  |  | 
2 | Ac-LPPYEFT-NH2 [capped EIP1 with L at position five mutated to E] |  |  | 5.1 | 5.09 | 
3 | Ac-LPPELFT-NH2 [capped EIP1 with Y at position four mutated to E] |  |  |  | 3.6 | 3.6
